“And” between values parts separate entries of the source, which are not always exact repeats. Equal entries are not always repeated.
Columns and labels:
[1] = molecular target: SARS-CoV-2 spike protein (S-wt, Wuhan-Hu-1, NCBI Accession Number MN908947.3) on VSV pseudoparticles (SARS-CoV-2, UniProt P0DTC2 14-1273); experiment: cell-based or functional assay
[2] = molecular target: Human SARS Coronavirus Spike S1 Subunit Protein (His Tag) (Sino 40150-V08B1) (Human SARS Coronavirus, UniProt P59594 14-667); experiment: Luminex bead binding, supernatant
[3] = molecular target: T1, MERS-CoV (NCoV/Novel coronavirus) Spike Protein (ECD, aa 1-1297, His Tag) (Sino 40069-[change]) (MERS-CoV, UniProt K9N5Q8 18-1297); experiment: Luminex bead binding, supernatant
T1 sequence: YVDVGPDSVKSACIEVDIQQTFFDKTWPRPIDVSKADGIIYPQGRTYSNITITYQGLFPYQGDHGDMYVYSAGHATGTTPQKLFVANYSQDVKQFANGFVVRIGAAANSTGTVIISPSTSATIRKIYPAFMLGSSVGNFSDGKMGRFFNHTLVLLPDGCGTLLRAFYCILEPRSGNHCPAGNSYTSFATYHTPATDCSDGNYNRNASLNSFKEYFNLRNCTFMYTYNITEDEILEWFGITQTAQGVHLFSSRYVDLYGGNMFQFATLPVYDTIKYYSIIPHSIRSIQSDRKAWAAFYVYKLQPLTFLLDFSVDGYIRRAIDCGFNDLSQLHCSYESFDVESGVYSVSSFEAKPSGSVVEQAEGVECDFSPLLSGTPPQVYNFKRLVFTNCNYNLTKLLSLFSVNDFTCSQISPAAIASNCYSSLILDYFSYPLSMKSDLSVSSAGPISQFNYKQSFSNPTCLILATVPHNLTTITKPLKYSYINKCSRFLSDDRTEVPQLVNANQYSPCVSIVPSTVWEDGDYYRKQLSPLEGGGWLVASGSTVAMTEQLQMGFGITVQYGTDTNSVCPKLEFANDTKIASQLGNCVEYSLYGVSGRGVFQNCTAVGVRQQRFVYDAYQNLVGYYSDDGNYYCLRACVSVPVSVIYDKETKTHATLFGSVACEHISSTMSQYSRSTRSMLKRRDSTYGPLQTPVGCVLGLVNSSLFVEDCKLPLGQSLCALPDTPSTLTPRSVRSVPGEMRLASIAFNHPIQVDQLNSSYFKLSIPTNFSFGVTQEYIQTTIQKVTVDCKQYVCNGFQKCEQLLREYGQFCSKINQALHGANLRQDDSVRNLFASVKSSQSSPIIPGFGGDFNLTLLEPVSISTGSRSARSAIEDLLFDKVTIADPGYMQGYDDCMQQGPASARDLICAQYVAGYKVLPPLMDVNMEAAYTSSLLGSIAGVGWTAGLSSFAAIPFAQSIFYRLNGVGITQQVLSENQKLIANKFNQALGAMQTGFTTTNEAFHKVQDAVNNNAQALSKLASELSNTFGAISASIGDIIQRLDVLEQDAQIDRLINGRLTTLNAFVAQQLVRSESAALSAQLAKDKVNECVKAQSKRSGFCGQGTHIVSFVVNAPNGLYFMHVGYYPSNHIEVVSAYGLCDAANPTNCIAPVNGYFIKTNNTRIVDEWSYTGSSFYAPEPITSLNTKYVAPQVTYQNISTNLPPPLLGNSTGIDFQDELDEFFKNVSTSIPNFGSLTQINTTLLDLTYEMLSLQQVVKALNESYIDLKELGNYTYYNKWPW

[4] = molecular target: T2, MERS-CoV (NCoV/Novel coronavirus) Spike Protein fragment (RBD, aa 367-606, His Tag) (Sino 40071-V08B1) (MERS-CoV, UniProt K9N5Q8 367-606); experiment: Luminex bead binding, supernatant
T2 sequence: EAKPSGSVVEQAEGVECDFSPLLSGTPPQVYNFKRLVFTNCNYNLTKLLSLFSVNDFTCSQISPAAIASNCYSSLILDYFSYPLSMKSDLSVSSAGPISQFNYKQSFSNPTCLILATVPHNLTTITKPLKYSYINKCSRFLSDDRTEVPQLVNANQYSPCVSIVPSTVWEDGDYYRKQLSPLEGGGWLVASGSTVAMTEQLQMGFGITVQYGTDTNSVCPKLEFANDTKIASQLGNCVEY

[5] = molecular target: T3, MERS-CoV (NCoV/Novel coronavirus) Spike Protein S2 (aa 726-1296, His Tag) (Sino 40070-[change]) (MERS-CoV, UniProt K9N5Q8 726-1296); experiment: Luminex bead binding, supernatant
T3 sequence: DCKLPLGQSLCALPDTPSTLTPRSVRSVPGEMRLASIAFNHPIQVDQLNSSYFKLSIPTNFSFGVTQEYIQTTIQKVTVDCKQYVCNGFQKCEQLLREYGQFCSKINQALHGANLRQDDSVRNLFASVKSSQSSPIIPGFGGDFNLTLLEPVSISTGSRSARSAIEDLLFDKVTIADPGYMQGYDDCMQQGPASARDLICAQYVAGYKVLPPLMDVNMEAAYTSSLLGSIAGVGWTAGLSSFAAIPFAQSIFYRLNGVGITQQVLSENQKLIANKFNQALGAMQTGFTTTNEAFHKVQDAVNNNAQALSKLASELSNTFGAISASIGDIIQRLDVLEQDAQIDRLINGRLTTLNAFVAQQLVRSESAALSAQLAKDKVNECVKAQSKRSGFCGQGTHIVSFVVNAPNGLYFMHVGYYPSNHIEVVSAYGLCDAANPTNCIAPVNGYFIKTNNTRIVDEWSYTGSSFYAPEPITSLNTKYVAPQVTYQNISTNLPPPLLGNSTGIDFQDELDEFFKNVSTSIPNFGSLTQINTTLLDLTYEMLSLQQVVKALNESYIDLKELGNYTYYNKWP

[6] = molecular target: receptor binding domain (RBD) portion of the SARS-CoV-2 Spike protein (amino acids Arg319-Phe541) ex (SARS-CoV-2)
[7] = molecular target: full-length SARS-CoV-2 spike protein (amino acids M1-T1273 of accession number YP_009724390.1) on Ju (SARS-CoV-2, UniProt P0DTC2 14-1273); experiment: cell-based or functional assay
[8] = molecular target: Bt-SARS-CoV-2 Spike Protein (RBD)(R319-F541).mFc (mAb10621-L2) (SARS-CoV-2); experiment: Luminex bead binding, supernatant
[9] = molecular target: SARS-CoV-2 Spike Protein (RBD)(R319-F541).mFc (mAb10621-L1) (SARS-CoV-2); experiment: Luminex bead binding, supernatant
[10] = molecular target: SARS-CoV-2 Spike Protein (RBD)(R319-F541).hFc (mAb10622-L1) (SARS-CoV-2); experiment: Luminex bead binding, supernatant

B1: mAb10986 (antibody, V domains shown)
VH: EVQLVESGGGLVQPGGSLRLSCAASEFTVSSNYMSWVRQAPGKGLEWVSVIYSGGSTFYADSVKGRFTISRDNSKNTLYLQMNSLRAEDTAVYYCARALPYGDLHFDYWGQGTLVTVSS
VL: QSVLTQPPSVSGAPGQRVTISCTGSSSNIGTGYDVHWYQQLPGTAPKLLIYGNTNRPSGVPDRFSGSKSGTSASLAITGLQAEDEADYYCQSYDSSLSDSYVFGTGTKVTVLG
IC50 (M), neutralization [1]: 9.91e-11 M

B2: mAb10964 (antibody, V domains shown)
VH: QVQLQESGPGLVKPSETLSLTCTVSGGSINNYYWIWIRQPPGKGLEWIGYIYHSGSTNYNPSLKSRVTISVDTSKNQFSLKVSSVTAADTAVYYCANMVRGVYEDDYWGQGTLVTVSS
VL: DIQMTQSPSSLSASVGDRVTITCRASQSISNYLNWYQQKPGKAPKLLIFAASSLRSGVPSRFSGSGSGTDFTLTISSLHPEDFATYYCQQNYNTPLTFGPGTKVDIKR
Binding signal (MFI) [2]: 5190 MFI
Binding signal (MFI) [3]: 15 MFI
Binding signal (MFI) [4]: 20 MFI

B3: mAb10987 (antibody, V domains shown)
VH: QVQLVESGGGVVQPGRSLRLSCAASGFTFSNYAMYWVRQAPGKGLEWVAVISYDGSNKYYADSVKGRFTISRDNSKNTLYLQMNSLRTEDTAVYYCASGSDYGDYLLVYWGQGTLVTVSS
VL: QSALTQPASVSGSPGQSITISCTGTSSDVGGYNYVSWYQQHPGKAPKLMIYDVSKRPSGVSNRFSGSKSGNTASLTISGLQSEDEADYYCNSLTSISTWVFGGGTKLTVLG
Binding signal (MFI) [5]: 23 MFI
Binding signal (MFI) [3]: 15 MFI

B4: mAb10934 (antibody, V domains shown)
VH: not shown
VL: DIQMTQSPSSLSASVGDRVTITCQASQDIWNYINWYQQKPGKAPKLLIYDASNLKTGVPSRFSGSGSGTDFTFTISSLQPEDIATYYCQQHDDLPPTFGQGTKVEIKR
IC50 (M), neutralization [1]: 5.44e-11 M

B5: mAb10934 (antibody, V domains shown)
VH: not shown
VL: DIQMTQSPSSLSASVGDRVTITCQASQDIWNYINWYQQKPGKAPKLLIYDASNLKTGVPSRFSGSGSGTDFTFTISSLQPEDIATYYCQQHDDLPPTFGQGTKVEIKR
IC50 [6]: 0.066 nM and 0.0597 nM
ADCP EC50 [M], Jurkat/hCD20/SARS-CoV-2 Spike cells [7]: 2.72e-12 M
ADCP Max (% ADCP), Jurkat/hCD20/SARS-CoV-2 Spike cells [7]: 40.1%

B6: mAb10954 (antibody, V domains shown)
VH: EVQLVESGGGLVQPGGSLRLSCAASGITVSSNYMSWVRQAPGKGLEWVSLIYSGGSTYYADSVKGRFTISRDNSKNTLYLQMNSLRVEDTAVYYCARDHGMAAAGYNYWGQGTLVTVSS
VL: DIQMTQSPSSLSASVGDRVTITCQASQDINKYLNWYQQKPGKAPKLLIYDASNLETGVPSRFSGSGSGTDFTFTINSLQPEDFATYFCQQYDNLPPAFGQGTKVEIKR
IC50 (M), neutralization [1]: 9.22e-11 M

B7: mAb10933 (antibody, V domains shown)
VH: QVQLVESGGGLVKPGGSLRLSCAASGFTFSDYYMSWIRQAPGKGLEWVSYITYSGSTIYYADSVKGRFTISRDNAKSSLYLQMNSLRAEDTAVYYCARDRGTTMVPFDYWGQGTLVTVSS
VL: DIQMTQSPSSLSASVGDRVTITCQASQDITNYLNWYQQKPGKAPKLLIYAASNLETGVPSRFSGSGSGTDFTFTISGLQPEDIATYYCQQYDNLPLTFGGGTKVEIKR
IC50 (M), neutralization [1]: 4.28e-11 M

B8: mAb10920 (antibody, V domains shown)
VH: QVQLVESGGGVVQPGRSLRLSCAASGFTFSYYGMHWVRQAPGKGLEWVAVIWYDGSNKFYADSVKGRFTISRDNSKNTLYLQMNSLRAEDTAVYYCAAARPGYYYGMDVWGQGTTVTVSS
VL: DIQMTQSPSSLSASVGDRVTITCRASQGISNYLAWFQQKPGKAPNSLIYAASSLQRGVPSKFSGSGSGTDFTLTISSLQPEDFATYYCQQYNSYPRTFGQGTKVEIKR
IC50 (M), neutralization [1]: 2.64e-10 M

B9: mAb11006 (antibody, V domains shown)
VH: EVQLVESGGGLVQPGGSLRLSCAASGFIVSRNYMSWVRQAPGKGLEWVSVIYSGGSTFYADSVKGRFTISRHNSKNTLYLQMNSLKAEDTAVYYCARELRGYFDYWGQGTLVTVSS
VL: DIQLTQSPSFLSASVGDRVTITCWASQGISSYLAWYQQKPGKAPKLLIYAASTLQSGVPSRFSGSGSGTEFTLTISSLQPEDFATYYCQLLNSYPYTFGQGTKLEIK
Binding signal (MFI) [8]: 1400 MFI
Binding signal (MFI) [9]: 2870 MFI
Binding signal (MFI) [10]: 3980 MFI

B10: mAb10984 (antibody, V domains shown)
VH: EVQLVESGGGLVQPGGSLRLSCAASGLTVNRNYMSWVRQAPGKGLEWVSLIYSGGSTYYADSVKGRFTISRDNSKNTLYLQMNSLRLEDTAVYYCARGELGIPYGMDVWGQGTTVTVSS
VL: QSVLTQPPSVSAAPGQKVTISCSGSSSNIGNNYVSWYQQLPGTAPKLLIYDNNKRPSGIPDRFSGSKSGTSATLGITGLQTGDEADYYCGTWDSSLSAGVFGGGTKLTVLG
IC50 (M), neutralization [1]: 9.73e-11 M

B11: mAb10970 (antibody, V domains shown)
VH: EVQLVESGGGLVQPGGSLRLSCAASGFTVSSNYMSWVRQAPGKGLEWVSVIYSGGSTYYADSVKGRFTISRDNSKNTLYLQMNRLRADDTAVYYCVRDPVGRYYYGMDVWGQGTTVTVSS
VL: not shown
Binding signal (MFI) [5]: 16 MFI
Binding signal (MFI) [3]: 14 MFI
Binding signal (MFI) [4]: 23 MFI

B12: mAb10936 (antibody, V domains shown)
VH: QVQLVESGGGVVQPGRSLRLSCAASGFTFRNYGMHWVRQAPGKGLEWVSVIWYDGSNRYYADSVKGRFTISRDTSKNTLYLQMNSLRAEDTAVYYCARDPPITGTTGGDAFDIWGQGTMVTVSS
VL: not shown
IC50 (M), neutralization [1]: 1.11e-10 M

— US20240043504A1 (published 2024)
